Assays:
streptavidin = streptavidin (Streptomyces avidinii, UniProt P22629); conditions: cited from earlier work
avidin = avidin (Gallus gallus, UniProt P02701); conditions: cited from earlier work
C57BL/6 mice = assay: Mixed hematopoietic allogeneic chimerism after bone marrow transplantation, 100 cGy total body irradiation, with cyclophosphamide; conditions: mouse, in vivo
Protocol: C57BL/6 mice were subjected to 100 cGy total body irradiation followed by intravenous transplantation of 30×10^6 unmodified (BMC) or the combination of SA-FasL and SA-IL-2 (mFasL/IL-2-BMC) one day later. […] All groups were treated i.p. with rapamycin (2 mg/kg) daily for 10 doses starting on day 6 pot-transplantation. The test group was also treated starting on day 6 post-transplantation with both soluble SA-FasL (sFasL; 500 ng/daily for 15 doses) and IL-2 (25,000 IU/daily for 7 doses). Percent donor chimerism at various times post-transplantation was assessed using peripheral blood lymphocytes with antibodies against donor class I MHC molecule in flow cytometry.
The tissues were, processed into single cell suspension, stained with antibodies to the indicated cell surface markers, and analyzed using flow cytometry.

[1] = test system: C57BL/6 recipients of allogeneic BALB/c hearts; assay: Cardiac allograft survival, BALB/c-to-C57BL/6 model; type: in vivo, mice; conditions: IL-2 7 doses or SA-FasL 15 doses i.p., no other manipulation
Source text: We next tested if SA-FasL as a biologic can work as an immunomodulator to prevent rejection of vascularized solid grafts. Heart transplantation from BALB/c into C57BL/6 mice was used as a stringent allogeneic heart graft model.

Female NOD mice = assay: Prevention of type 1 diabetes in NOD mice; type: in vivo
Protocol: FIG. 5. Systemic treatment with SA-FasL protein delays the onset and incidence of Type 1 Diabetes in NOD. Female NOD mice were treated with the indicated agents at 10-week of age. Mice were then monitored for hyperglycemia by urine glucose test, which was confirmed by a blood glucose test. Mice with >200 mg/dl blood glucose levels were considered diabetic. Soluble (s)SA-FasL in PBS was used at 500 ng/injection intraperitoneally daily for 30 days. […] Female mice without any treatment were used as controls. In the SA-FasL only treatment group, 3 diabetic mice were treated with an additional 10 daily doses (black arrows) of SA-FasL soon after incidence of diabetes, resulting in temporary remission of hyperglycemia in ⅔ of those mice.
Inasmuch as antigen-experienced cells express Fas receptor on their surface, systemic treatment with SA-FasL has potential to eliminate such cells and control/reverse T1D without a major effect on quiescent T cell repertoire. This notion was tested by treating 10-wk female NOD mice daily with 500 ng SA-FasL protein for 30 days. […] We next asked the question if SA-FasL will work in synergy with IL-2. […] Indeed, T regulatory cells express FasL on their surface and control T effector responses by direct elimination via Fas receptor or indirectly by eliminating Fas-expressing DCs.

[2] = test system: NHP (rhesus monkey) PBMCs; assay: Apoptosis of NHP PBMC T cells cultured with SA-FasL (Annexin V, flow cytometry); type: cell-based; conditions: Teff (CD3+CD28-Fas+) or T central (CD3+CD28+Fas+) memory; PBMCs from 3 NHPs
Protocol: FIG. 3. SA-FasL induces apoptosis in nonhuman primate (NHP) Teff cells. NHP (rhesus monkey) PBMCs were cultured with SA-FasL and apoptosis was assessed using Annexin V by gating on CD3^+ T cells. Cells incubated with SA served as controls. Data is representative of PBMCs from 3 NHPs.
Inasmuch as individuals with onset of autoimmunity have a large pool of activated and memory T cells, we asked if SA-FasL is capable of inducing apoptosis in such cells. For this purpose, we used nonhuman primate (NHP) peripheral blood lymphocytes (PBMCs). The PBMCs from 3 different NHPs were incubated with SA-FasL protein and apoptosis was assessed using flow cytometry.

[3] = test system: STZ diabetic C57BL/6 mice; assay: Intraportal allogeneic islet transplantation (BALB/c-to-C57BL/6), soluble SA-FasL; type: in vivo
Protocol: FIG. 2. Survival of allogeneic islets transplanted intraportally with different treatment protocols. BALB/c islets were engineered with SA-FasL protein and transplanted intraportally into STZ diabetic C57BL/6 mice. Rapa was used daily at 0.2 mg/kg for 15 doses starting on day of transplantation. Soluble (s)FasL was used at the indicated dose and regimens.
To further establish SA-FasL as a soluble biologic, we tested its immunomodulatory capacity for the prevention of allogeneic islets transplanted using a more stringent model of intraportal islet transplantation. The rationale for this model is twofold. First, intraportal islet transplantation is the only site practiced in the clinic. Second, intraportal islet transplantation provides a much more stringent model as compared to subrenal islet transplantation. […] Therefore, we used this model to test if SA-FasL can be developed as a soluble biologic for the prevention and treatment of type I diabetes and foreign graft rejection.

[4] = test system: STZ diabetic C57BL/6 mice; assay: Allogeneic islet transplantation under the kidney capsule (BALB/c-to-C57BL/6); type: in vivo
Protocol: FIG. 1. Systemic immunomodulation with soluble SA-FasL synergizes with SA-FasL-engineered islets for long-term survival. BALB/c islets were engineered with SA-FasL (mSA-FasL) or SA control (mSA) proteins and transplanted under the kidney capsule of STZ diabetic C57BL/6 mice. Soluble (s)SA-FasL was administered i.p. at 2-5 μg/mouse on days 1, 3, 5, 7 post-transplantation. In selected groups rapamycin was used at 0.2 mg/kg daily for 15 days starting the day of transplantation.
Treatment with soluble SA-FasL only under a short course of rapamycin was also effective, achieving >80% graft survival.

[5] = test system: STZ diabetic C57BL/6 mice; assay: Intraportal allogeneic islet transplantation, SA-FasL and IL-2; type: in vivo; conditions: soluble SA-FasL as monotherapy
Protocol: BALB/c islets were transplanted intraportally into STZ diabetic age-matched males and females C57BL/6 mice.
These islets were then immediately transplanted intraportally into diabetic mice (450-550 islets/mouse). Mice were then treated with the indicated proteins and doses. Animals were monitored for diabetes, and those with two consecutive daily measurements of ≥250 mg/dl blood glucose level were considered diabetic and confirmation of graft failure.

streptavidin, sequence (P22629 25-183): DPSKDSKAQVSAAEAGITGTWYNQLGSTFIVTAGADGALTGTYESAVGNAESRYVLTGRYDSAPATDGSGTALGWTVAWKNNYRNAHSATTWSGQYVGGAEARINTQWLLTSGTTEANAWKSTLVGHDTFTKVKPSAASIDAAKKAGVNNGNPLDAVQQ
avidin, sequence (P02701 25-152): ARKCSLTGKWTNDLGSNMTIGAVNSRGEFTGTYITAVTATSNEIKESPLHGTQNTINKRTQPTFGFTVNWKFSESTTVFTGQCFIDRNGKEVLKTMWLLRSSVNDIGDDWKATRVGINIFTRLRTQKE

O=C(O)CCCC[C@@H]1SC[C@@H]2NC(=O)N[C@@H]21 [biotin]
affinity for streptavidin (streptavidin): 10^13 M^−1
affinity for avidin (avidin): 10^15 M^−1

O=P1(N(CCCl)CCCl)NCCCO1 (stereo not shown) [cyclophosphamide]
establishment of mixed hematopoietic allogeneic chimerism (C57BL/6 mice): acted synergistically

B1: SA-FasL: chimeric protein of core streptavidin and the extracellular domain of FasL (rat FasL without metalloproteinase site); used unbound, in soluble form (protein)
chain: RSDYKDDDDKGTITGTWYNQLGSTFIVTAGADGALTGTYESAVGNAESRYVLTGRYDSAPATDGSGTALGWTVAWKNNYRNAHSATTWSGQYVGGAEARINTQWLLTSGATEANAWKSTLVGHDTFTKVKPSAASSGGGGSGGGGSGEFIANPSTPSETKKPRSVAHLTGNPRSRSIPLEWEDTYGTALISGVKYKKGGLVINEAGLYFVYSKVYFRGQSCNSQPLSHKVYMRNFKYPGDLVLMEEKKLNYCTTGQIWAHSSYLGAVFNLTVADHLYVNISQLSLINFEESKTFFGLYKL
effect on cardiac graft survival, monotherapy [1]: moderate prolongation of the grafts
toxicity (Female NOD mice; 500 ng SA-FasL daily for 30 days): did not observe any sign of SA-FasL toxicity
onset and incidence of T1D vs controls (Female NOD mice; 500 ng SA-FasL daily for 30 days, 10-wk female NOD): significantly delayed the onset and incidence of T1D
temporary remission of hyperglycemia (fraction of mice) (Female NOD mice; 3 diabetic mice given additional 10 daily doses of SA-FasL soon after incidence of diabetes): ⅔
apoptosis of T cells [2]: Almost all T cells expressing Fas underwent apoptosis
islet graft survival ([3]; 4 doses of SA-FasL (2-5 μg/injection) i.v. or i.p. on days 1, 3, 5, 7, SA-FasL-engineered islets, intraportal): All BALB/c islets engineered with SA-FasL protein survived
mice that rejected the graft ([3]; soluble FasL 1 μg injection daily for 20 days from day of transplantation, no islet engineering, intraportal): one out of six
day of graft rejection post-transplantation ([3]; soluble FasL 1 μg injection daily for 20 days, the one rejecting mouse): 80 days
toxicity ([3]; soluble biologic at therapeutic doses): without toxicity
time of delayed rejection ([4]; soluble SA-FasL 2-5 μg/mouse i.p. on days 1, 3, 5, 7, SA-FasL-islet grafts): ~70 days
recipients with delayed rejection of allogeneic SA-FasL-islet grafts (fraction) ([4]; soluble SA-FasL 2-5 μg/mouse i.p. on days 1, 3, 5, 7 post-transplantation, SA-FasL-engineered BALB/c islets under kidney capsule): ⅛
graft survival ([4]; soluble SA-FasL only, under a short course of rapamycin): > 80%
allogeneic islets whose rejection was prevented [5]: ~60%

Reference: US12023367B2, “Immunomodulation for the long term prevention and treatment of autoimmune diseases and foreign tissue rejection” (University of Louisville Research Foundation, Inc., priority 2015, dated 2024)
